The source of these data is patent publication US20250223358A1 (ANTENGENE BIOLOGICS, published 2025).

Where a chain is given by its changes, count along the chain named. Names and notes keep the numbering of the source.

B1: ch127E2D3 (antibody, V domains shown)
VH: QVQLQQPGTELVKPGASVKLSCKASGYTFTSYWMHWVKQRPGEGLEWIGNIYPGSSSINYNEKFKSKATLTVDKSSSTAYMQLSSLTSEDSAVYYCARDRSSQYYFDYWGQGTTLTVSS
VL: DIVMSQSPSSLAVSAGEKVTMSCKSSQSLLNSRTRKNYLAWYQQKPGQSPKLLIYWASTRESGVPDRFTGSGSGTDFTLTISSVQAEDLAVYYCTQSYNLRTFGGGTKLEIK
B2: ch133B4C7 (antibody, V domains shown)
VH: B1 VH with E43Q, Y52N, G54S, S55N, S56G, S57D, I58T, Y60F
VL: B1 VL with K24N, T95K, N99T
B3: ch140D2B10 (antibody, V domains shown)
VH: B1 VH with E43Q, Y52N, G54S, S55N, S56G, S57E, I58S, S91Y
VL: B1 VL with T95K, N99T
B4: hu147E2-L1H3 (antibody, V domains shown)
VH: EVQLVQSGAEVKKPGSSVKVSCKASGYTFTSYWMHWVRQAPGQGLEWMGNINPSNGATNYNEKFKSRVTLTVDKSTSTAYMELSSLRSEDTAVYYCARDRSSQYYFDYWGQGTTVTVSS
VL: DIVMTQSPDSLAVSLGERATINCKSSQSLLNSRSRKNYLAWYQQKPGQPPKLLIYWASTRESGVPDRFSGSGSGTDFTLTISSLQAEDVAVYYCTQSYTLRTFGGGTKVEIK
notes: humanized 147E11E2; also called hu14E2-L1H3
B5: hu147E2-L1H4 (antibody, V domains shown)
VH: B4 VH with M48I, V68A
VL: B4 VL
notes: humanized 147E11E2; also called hu14E2-L1H4
B6: hu147E2-L2H3 (antibody, V domains shown)
VH: B4 VH
VL: B4 VL with P49S
notes: humanized 147E11E2; also called hu14E2-L2H3
B7: hu147E2-L2H2 (antibody, V domains shown)
VH: B4 VH with L70I, V72A
VL: B4 VL with P49S
notes: humanized 147E11E2; also called hu14E2-L2H2
B8: hu147E2-L2H4 (antibody, V domains shown)
VH: B4 VH with M48I, V68A
VL: B4 VL with P49S
notes: humanized 147E11E2; also called hu14E2-L2H4
B9: hu147E2-L1H3b (antibody, V domains shown)
VH: B4 VH with N55S
VL: B4 VL
notes: humanized 147E11E2 with N55S in HCDR2 (deamidation site removed); also called hu14E2-L1H3b

T1 sequence (P07766 23-207, chain 1 of 3): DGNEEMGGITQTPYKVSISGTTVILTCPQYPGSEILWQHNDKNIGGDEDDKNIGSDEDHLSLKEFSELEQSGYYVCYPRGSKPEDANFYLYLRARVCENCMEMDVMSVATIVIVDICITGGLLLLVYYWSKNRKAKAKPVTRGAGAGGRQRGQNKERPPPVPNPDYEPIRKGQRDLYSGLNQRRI
T1 sequence (P04234 22-171, chain 2 of 3): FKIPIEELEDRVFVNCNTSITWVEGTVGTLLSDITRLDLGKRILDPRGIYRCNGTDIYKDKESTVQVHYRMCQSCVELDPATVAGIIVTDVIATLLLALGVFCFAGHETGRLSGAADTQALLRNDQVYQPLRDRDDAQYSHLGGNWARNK
T1 sequence (P09693 23-182, chain 3 of 3): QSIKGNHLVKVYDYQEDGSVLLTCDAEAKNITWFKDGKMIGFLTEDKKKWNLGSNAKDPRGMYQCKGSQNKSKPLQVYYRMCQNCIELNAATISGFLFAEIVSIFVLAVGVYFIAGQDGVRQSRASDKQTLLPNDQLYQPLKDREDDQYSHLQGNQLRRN

The first assay concerns the target T1, human CD3 (human, UniProt P07766 23-207; P04234 22-171; P09693 23-182). Nature of the assay: cell-based or functional assay.
For B1, the “EC50 (Jurkat-NFAT-luciferase activation)” value was 61.7 nM and the “Top signal (Jurkat-NFAT-luciferase activation)” value worked out at 337.
In the case of B2, the “EC50 (Jurkat-NFAT-luciferase activation)” value amounted to 28 nM and the “Top signal (Jurkat-NFAT-luciferase activation)” value amounted to 290.

Another assay deals with T2, cynomolgus CD3 (cynomolgus (Macaca fascicularis), UniProt Q95LI5 22-198; Q95LI8 22-171; Q95LI7 23-181).
T2 construct: whole, on cells; composition of the 'mix' not defined; also called cynoCD3
T2 sequence (Q95LI5 22-198, chain 1 of 3): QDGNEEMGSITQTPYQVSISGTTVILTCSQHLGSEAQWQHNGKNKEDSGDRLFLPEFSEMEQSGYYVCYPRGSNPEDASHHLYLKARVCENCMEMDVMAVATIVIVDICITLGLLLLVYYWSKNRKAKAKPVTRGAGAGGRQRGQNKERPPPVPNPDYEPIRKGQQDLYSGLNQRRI
T2 sequence (Q95LI8 22-171, chain 2 of 3): as the sequence (P04234 22-171, chain 2 of 3) above, with I5V, N15K, I20V, S32T, D33N, I34N, T64A, S74N, V83L, H141R counted along it
T2 sequence (Q95LI7 23-181, chain 3 of 3): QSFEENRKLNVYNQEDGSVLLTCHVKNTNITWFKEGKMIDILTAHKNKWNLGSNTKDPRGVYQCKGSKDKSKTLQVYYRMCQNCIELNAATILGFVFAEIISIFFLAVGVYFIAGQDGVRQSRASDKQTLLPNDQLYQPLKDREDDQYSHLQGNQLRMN
Nature of the assay: FACS on 293T-cynoCD3mix cells.
One may read the EC50 as the concentration needed to bring the measured effect to its halfway point. A high value points to weaker potency. Consider B1, for which the EC50 was determined as 2.33 nM and the Top signal came to 46900.
Taken in the same sequence, the figures for B2 were 2.81 nM and 45200.
In turn, B3 gave an EC50 of 2.81 nM and a Top signal of 52900.

Another assay addresses T1, human CD3. The assay is described as follows: cell-based or functional assay. The source holds these as a separate data set.
Consider B4, for which the “EC50_Fold change (Jurkat-NFAT-luciferase activation, normalized to ch147E11E2)” value stood at 1.98 fold and the “Top FACS signal_Fold change (Jurkat-NFAT-luciferase activation, normalized to ch147E11E2)” value is 1 fold.
Taken in the same sequence, the figures for B5 were 1.21 fold and 0.92 fold.
Regarding B6, the “EC50_Fold change (Jurkat-NFAT-luciferase activation, normalized to ch147E11E2)” value turned out to be 1.65 fold and the “Top FACS signal_Fold change (Jurkat-NFAT-luciferase activation, normalized to ch147E11E2)” value worked out at 0.78 fold.
The matching figures for B7: 1.4 fold and 0.9 fold.
B8: the “EC50_Fold change (Jurkat-NFAT-luciferase activation, normalized to ch147E11E2)” value was determined as 1.24 fold and the “Top FACS signal_Fold change (Jurkat-NFAT-luciferase activation, normalized to ch147E11E2)” value is 0.99 fold.
With B9, the “EC50_Fold change (Jurkat-NFAT-luciferase activation, normalized to ch147E11E2)” value came out at 1.73 fold and the “Top FACS signal_Fold change (Jurkat-NFAT-luciferase activation, normalized to ch147E11E2)” value amounted to 0.87 fold.

Another assay addresses T2, cynomolgus CD3. Nature of the assay: FACS on 293T-cynoCD3mix cells. This is another data set of the same source.
B4 had an EC50 of 1.51 nM and a Top signal of 19200.
Regarding B5, it took 1.31 nM to reach a half-maximal effect (EC50) and the Top signal was determined as 18700.
Consider B6, for which the concentration giving a half-maximal response (EC50) was found to be 1.86 nM and the Top signal turned out to be 21000.
Take B7: it took 1.64 nM to reach a half-maximal effect (EC50) and the Top signal stood at 20500.
The matching figures for B8: 2.02 nM and 21200.
B9 displayed an EC50 of 1.68 nM and a Top signal of 21100.
